From patent US20050282743A1, “Molecular interactions in cells” (Arbor Vita Corporation, priority 2001, published 2005)
Where “and” joins values, the source holds several entries; their conditions need not be identical. Identical values can stand only once.

Experiments:
[1] = biological target: GST-PSD95 PDZ domains 1, 2, 3 (Homo sapiens), P78352; test: G' assay; note: key of the grades not given here
[2] = biological target: T1, GST-TIP1 PDZ domain 1 (Table 9 insert) (Homo sapiens (Human)), O14907; test: G' assay; note: key of the grades not given here
T1 chain: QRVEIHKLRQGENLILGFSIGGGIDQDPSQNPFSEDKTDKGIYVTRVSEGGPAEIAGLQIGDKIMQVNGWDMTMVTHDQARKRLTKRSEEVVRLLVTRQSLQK

[3] = biological target: GST-KIAA1634 PDZ domain 1 (Homo sapiens (Human)), Q5TCQ9; test: G' assay; note: key of the grades not given here
GST-KIAA1634 PDZ domain 1 (Homo sapiens (Human)), Q5TCQ9, sequence (Q5TCQ9 401-502): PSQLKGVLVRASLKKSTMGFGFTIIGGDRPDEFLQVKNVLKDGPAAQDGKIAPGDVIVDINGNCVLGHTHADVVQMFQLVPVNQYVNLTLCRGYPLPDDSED

[4] = biological target: T2, GST-KIAA0807(S) PDZ domain 1 (Homo sapiens (Human)), Q6P0Q8; test: G' assay; note: key of the grades not given here
T2 chain: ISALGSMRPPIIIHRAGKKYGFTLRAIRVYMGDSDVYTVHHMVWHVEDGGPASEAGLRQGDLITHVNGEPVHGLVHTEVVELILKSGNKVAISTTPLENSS

[5] = biological target: GST-KIAA1634 PDZ domain 5 (Homo sapiens (Human)), Q5TCQ9; test: G' assay; note: key of the grades not given here
GST-KIAA1634 PDZ domain 5 (Homo sapiens (Human)), Q5TCQ9, sequence (Q5TCQ9 other isoform, or with tags, fused parts or gaps): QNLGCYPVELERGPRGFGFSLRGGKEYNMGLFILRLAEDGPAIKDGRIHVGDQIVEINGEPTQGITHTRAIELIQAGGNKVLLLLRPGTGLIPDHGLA

[6] = biological target: T3, GST-novel PDZ gene PDZ domain 2 (Homo sapiens (Human)), Q9H5P4; test: G' assay; note: key of the grades not given here
T3 chain: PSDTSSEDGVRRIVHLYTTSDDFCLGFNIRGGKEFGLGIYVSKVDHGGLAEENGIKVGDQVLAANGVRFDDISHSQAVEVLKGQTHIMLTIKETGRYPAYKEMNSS

[7] = biological target: GST-BAI-1 Associated Protein PDZ domain 2 (Mus musculus (Mouse)), Q6RHR9; test: G' assay; note: key of the grades not given here
GST-BAI-1 Associated Protein PDZ domain 2 (Mus musculus (Mouse)), Q6RHR9, sequence (Q6RHR9 455-558): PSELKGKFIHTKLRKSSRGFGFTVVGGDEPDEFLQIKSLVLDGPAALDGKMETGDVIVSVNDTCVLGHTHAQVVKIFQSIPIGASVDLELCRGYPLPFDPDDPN

[8] = biological target: T4, GST-Syntrophin 1 alpha PDZ domain 1 (Homo sapiens (Human)), Q13424; test: G' assay; note: key of the grades not given here
T4 chain: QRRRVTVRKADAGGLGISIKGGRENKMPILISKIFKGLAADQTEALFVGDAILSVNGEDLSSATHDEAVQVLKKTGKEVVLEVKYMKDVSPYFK

[9] = biological target: T5, GST-MUPP1 PDZ domain 13 (Homo sapiens (Human)), O75970; test: G' assay; note: key of the grades not given here
T5 chain: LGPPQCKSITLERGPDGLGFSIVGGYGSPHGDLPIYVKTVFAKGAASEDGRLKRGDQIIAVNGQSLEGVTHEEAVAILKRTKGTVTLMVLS

[10] = biological target: T6, GST-KIAA0380 PDZ domain 1 (Homo sapiens (Human)), O15085; test: G' assay; note: key of the grades not given here
T6 chain: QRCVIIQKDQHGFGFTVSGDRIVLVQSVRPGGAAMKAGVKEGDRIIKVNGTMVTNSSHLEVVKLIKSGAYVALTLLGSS

[11] = biological target: T7, GST-PDZK1 PDZ domains 2, 3, 4, Q5T2W1; test: G' assay; note: key of the grades not given here
T7 chain: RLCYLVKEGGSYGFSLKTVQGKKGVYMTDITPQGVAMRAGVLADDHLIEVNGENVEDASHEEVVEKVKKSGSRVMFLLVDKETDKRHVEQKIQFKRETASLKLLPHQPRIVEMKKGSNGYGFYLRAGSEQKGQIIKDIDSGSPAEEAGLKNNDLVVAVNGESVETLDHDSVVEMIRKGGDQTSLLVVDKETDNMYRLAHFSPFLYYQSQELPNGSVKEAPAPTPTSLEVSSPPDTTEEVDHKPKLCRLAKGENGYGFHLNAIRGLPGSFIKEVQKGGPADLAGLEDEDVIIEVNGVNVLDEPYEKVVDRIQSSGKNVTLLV

[12] = biological target: GST-BAI-1 Associated Protein PDZ domain 6 (Homo sapiens (Human)), Q96QZ7; test: G' assay; note: key of the grades not given here
GST-BAI-1 Associated Protein PDZ domain 6 (Homo sapiens (Human)), Q96QZ7, sequence (Q96QZ7 1143-1233): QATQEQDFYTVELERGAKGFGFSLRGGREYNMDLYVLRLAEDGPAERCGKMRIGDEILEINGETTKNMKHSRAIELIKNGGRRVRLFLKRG

[13] = biological target: GST-DLG1 PDZ domains 1, 2 (Homo sapiens), Q12959; test: G assay titration, PDZ 0.3 ug/ml
[14] = biological target: T8, GST-TIP-1 (Example 3) (human), O14907; test: G assay titration, PDZ 0.3 ug/ml
T8 chain: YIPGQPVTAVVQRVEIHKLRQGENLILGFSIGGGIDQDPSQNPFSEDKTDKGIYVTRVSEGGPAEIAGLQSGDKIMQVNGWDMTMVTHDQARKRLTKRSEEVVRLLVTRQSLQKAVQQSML

[15] = biological target: T9, GST-Outer Membrane PDZ domain 1 (Homo sapiens (Human)), P57105; test: G' assay; note: key of the grades not given here
T9 chain: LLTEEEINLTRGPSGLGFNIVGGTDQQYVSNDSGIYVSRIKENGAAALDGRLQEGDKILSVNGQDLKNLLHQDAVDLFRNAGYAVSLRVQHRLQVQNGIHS

[16] = biological target: GST-DLG1 PDZ domains 1, 2 (Homo sapiens), Q12959; test: G' assay; note: key of the grades not given here
[17] = biological target: T10, GST-PTPL1 PDZ domain 4 (Homo sapiens (Human)), Q12923; test: G' assay; note: key of the grades not given here
T10 chain: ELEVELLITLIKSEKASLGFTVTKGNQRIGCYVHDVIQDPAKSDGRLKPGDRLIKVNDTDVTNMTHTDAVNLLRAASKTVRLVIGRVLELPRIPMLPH

[18] = biological target: T11, GST-AIPC PDZ domain 1 (Homo sapiens (Human)), O15018; test: G' assay; note: key of the grades not given here
T11 chain: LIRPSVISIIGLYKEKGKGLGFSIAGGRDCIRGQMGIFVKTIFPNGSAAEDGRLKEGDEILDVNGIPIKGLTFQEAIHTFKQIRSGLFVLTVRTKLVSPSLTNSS

[19] = biological target: T12, GST-DLG1 PDZ domain 2 (Homo sapiens), Q12959; test: G' assay; note: key of the grades not given here
T12 chain: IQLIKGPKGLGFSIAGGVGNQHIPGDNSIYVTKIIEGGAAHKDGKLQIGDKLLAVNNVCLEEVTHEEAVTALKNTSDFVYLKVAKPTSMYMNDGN

[20] = biological target: T13, GST-PTPL1 PDZ domain 2 (Homo sapiens (Human)), Q12923; test: G' assay; note: key of the grades not given here
T13 chain: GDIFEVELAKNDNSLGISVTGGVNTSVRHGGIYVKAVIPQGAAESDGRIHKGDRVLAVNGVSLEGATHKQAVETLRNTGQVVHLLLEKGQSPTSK

[21] = biological target: GST-KIAA1634 PDZ domain 4 (Homo sapiens (Human)), Q5TCQ9; test: G' assay; note: key of the grades not given here
GST-KIAA1634 PDZ domain 4 (Homo sapiens (Human)), Q5TCQ9, sequence (Q5TCQ9 844-945): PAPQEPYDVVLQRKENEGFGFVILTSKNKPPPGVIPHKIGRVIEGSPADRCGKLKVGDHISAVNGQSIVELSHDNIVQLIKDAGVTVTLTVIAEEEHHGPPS

[22] = biological target: T14, GST-FLJ 10324 PDZ domain 1 [GST: P08515]; test: G' assay; note: key of the grades not given here
T14 chain: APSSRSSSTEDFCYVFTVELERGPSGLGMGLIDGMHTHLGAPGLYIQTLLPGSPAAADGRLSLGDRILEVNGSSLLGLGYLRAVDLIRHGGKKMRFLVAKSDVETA

[23] = biological target: T15, GST-DLG2 PDZ domain 2 (Homo sapiens (Human)), Q15700; test: G' assay; note: key of the grades not given here
T15 chain: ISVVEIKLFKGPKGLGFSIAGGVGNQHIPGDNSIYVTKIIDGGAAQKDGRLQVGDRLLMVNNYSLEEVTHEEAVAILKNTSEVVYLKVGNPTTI

[24] = biological target: GST-BAI-1 Associated Protein PDZ domain 5 (Homo sapiens (Human)), Q96QZ7; test: G' assay; note: key of the grades not given here
GST-BAI-1 Associated Protein PDZ domain 5 (Homo sapiens (Human)), Q96QZ7, sequence (Q96QZ7 988-1099): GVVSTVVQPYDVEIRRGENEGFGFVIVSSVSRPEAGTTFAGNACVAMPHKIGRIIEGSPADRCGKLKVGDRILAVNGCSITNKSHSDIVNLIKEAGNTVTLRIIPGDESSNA

[25] = biological target: T16, GST-KIAA1634 PDZ domain 2 (Homo sapiens (Human)), Q5TCQ9; test: G' assay; note: key of the grades not given here
T16 chain: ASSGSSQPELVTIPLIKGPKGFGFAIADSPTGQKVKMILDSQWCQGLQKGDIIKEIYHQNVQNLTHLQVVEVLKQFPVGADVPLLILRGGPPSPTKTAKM

[26] = biological target: T17, GST-NeDLG PDZ domains 1, 2, Q92796; test: G' assay; note: key of the grades not given here
T17 chain: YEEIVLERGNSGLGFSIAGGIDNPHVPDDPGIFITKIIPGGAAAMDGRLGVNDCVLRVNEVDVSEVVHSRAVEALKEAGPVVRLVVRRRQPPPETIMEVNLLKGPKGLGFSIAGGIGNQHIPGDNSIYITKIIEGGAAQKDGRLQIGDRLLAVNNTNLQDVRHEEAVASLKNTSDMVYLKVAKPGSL

[27] = biological target: T18, GST-GRIP 1 PDZ domain 7 (Homo sapiens (Human)), Q9Y3R0; test: G' assay; note: key of the grades not given here
T18 chain: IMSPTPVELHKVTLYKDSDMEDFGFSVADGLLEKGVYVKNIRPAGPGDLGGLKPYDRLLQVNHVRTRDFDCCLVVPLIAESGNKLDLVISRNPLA

[28] = biological target: T19, GST-MINT1 PDZ domains 1, 2, Q02410; test: G' assay; note: key of the grades not given here
T19 chain: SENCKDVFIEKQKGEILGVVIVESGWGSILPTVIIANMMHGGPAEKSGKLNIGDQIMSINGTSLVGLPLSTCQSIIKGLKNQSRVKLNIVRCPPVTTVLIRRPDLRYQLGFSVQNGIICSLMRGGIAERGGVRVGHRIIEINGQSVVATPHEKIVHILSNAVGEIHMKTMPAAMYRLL

[29] = biological target: T20, GST-MINT1 PDZ domain 2 (Mus musculus (Mouse)), B2RUJ5; test: G' assay; note: key of the grades not given here
T20 chain: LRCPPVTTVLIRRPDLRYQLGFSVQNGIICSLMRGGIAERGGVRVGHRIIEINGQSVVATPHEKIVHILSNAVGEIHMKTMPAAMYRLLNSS

[30] = biological target: T21, GST-KIAA1526 PDZ domain 1 (Homo sapiens (Human)), Q9P202; test: G' assay; note: key of the grades not given here
T21 chain: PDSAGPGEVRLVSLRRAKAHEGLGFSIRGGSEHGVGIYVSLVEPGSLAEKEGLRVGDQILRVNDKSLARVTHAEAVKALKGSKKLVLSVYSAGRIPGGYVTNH

[31] = biological target: T22, GST-Shank 1 PDZ domain 1 (Homo sapiens (Human)), Q9UPX8; test: G' assay; note: key of the grades not given here
T22 chain: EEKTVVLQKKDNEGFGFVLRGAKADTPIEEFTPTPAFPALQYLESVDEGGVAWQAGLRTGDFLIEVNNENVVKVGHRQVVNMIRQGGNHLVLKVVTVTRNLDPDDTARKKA

[32] = biological target: GST-KIAA807 [GST: P08515]; test: G' assay; note: key of the grades not given here
GST-KIAA807 [GST: P08515], sequence (P08515 whole entry, the tested form may be a part): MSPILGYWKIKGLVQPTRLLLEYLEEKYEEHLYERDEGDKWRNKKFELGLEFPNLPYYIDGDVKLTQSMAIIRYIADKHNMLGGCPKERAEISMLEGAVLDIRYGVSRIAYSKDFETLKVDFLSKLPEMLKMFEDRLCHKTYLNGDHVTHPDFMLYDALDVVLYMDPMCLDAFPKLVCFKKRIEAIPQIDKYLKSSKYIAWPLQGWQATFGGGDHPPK

[33] = biological target: T23, GST-KIAA0382 PDZ domain 1 (Canis lupus familiaris (Dog) (Canis familiaris)), A0A8I3; test: G' assay; note: key of the grades not given here
T23 chain: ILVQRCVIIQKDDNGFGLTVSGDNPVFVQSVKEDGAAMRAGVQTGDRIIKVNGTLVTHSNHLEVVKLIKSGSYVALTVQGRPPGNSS

[34] = biological target: T24, GST-KIAA1719 PDZ domain 6 (Homo sapiens (Human)), Q9C0E4; test: G' assay; note: key of the grades not given here
T24 chain: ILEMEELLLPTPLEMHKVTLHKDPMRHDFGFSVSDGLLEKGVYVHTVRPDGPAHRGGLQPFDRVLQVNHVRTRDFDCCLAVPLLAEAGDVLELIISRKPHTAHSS

GST-PSD95 PDZ domains 1, 2, 3 (Homo sapiens), P78352, sequence (P78352 62-395): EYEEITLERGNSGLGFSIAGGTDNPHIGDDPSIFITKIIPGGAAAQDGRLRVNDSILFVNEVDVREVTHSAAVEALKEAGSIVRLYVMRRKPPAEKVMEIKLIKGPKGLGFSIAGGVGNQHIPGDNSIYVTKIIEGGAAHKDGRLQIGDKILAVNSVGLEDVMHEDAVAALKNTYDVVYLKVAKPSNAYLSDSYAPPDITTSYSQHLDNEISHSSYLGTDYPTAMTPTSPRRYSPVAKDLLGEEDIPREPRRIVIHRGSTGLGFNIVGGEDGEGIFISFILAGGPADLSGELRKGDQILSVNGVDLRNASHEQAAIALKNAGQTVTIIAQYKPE

Work on ARHRVTSYTSSSVNVSSNL (modifications not checked) [IL-8RA] yielded a Classification [1] of 1 A450 class, a Classification [2] of 1 A450 class and a Classification [3] of 1 A450 class. The Classification [4] was 1 A450 class, the Classification [5] was 1 A450 class and the Classification [6] was 1 A450 class. For the same binder, the Classification [7] was 1 A450 class, the Classification [8] was 1 A450 class and the Classification [9] was 1 A450 class. The Classification [10] was 1 A450 class, the Classification [11] was 1 A450 class and the Classification [12] was 1 A450 class.

With KDITSDSENSNFRNEIQSLV (modifications not checked) [CD95] the Kd [13] was 15 µM and 20 µM, the maximum OD (450 nm) [13] was 2.6 OD and 2.1 OD and the Kd [14] was 20 µM and 25 µM. The maximum OD (450 nm) [14] was 2.6 OD and 3.5 OD, the Classification [15] was 1 A450 class and the Classification [1] was 1 A450 class. It also gave a Classification [16] of 2 A450 class, a Classification [3] of 1 A450 class and a Classification [17] of 1 A450 class. For the same binder, the Classification [18] was 1 A450 class, the Classification [19] was 1 A450 class and the Classification [20] was 3 A450 class. For the same binder, the Classification [21] was 1 A450 class, the Classification [22] was 1 A450 class and the Classification [23] was 1 A450 class. It also gave a Classification [24] of 3 A450 class, a Classification [25] of 1 A450 class and a Classification [26] of 1 A450 class.

LNETTETQRTLLNGDLQTSI (modifications not checked) [SSTR2 (somatostatin recepor 2)] was tested, and the Classification [27] was 1 A450 class, the Classification [28] was 1 A450 class and the Classification [29] was 1 A450 class. For the same binder, the Classification [30] was 1 A450 class, the Classification [4] was 2 A450 class and the Classification [31] was 1 A450 class. It also gave a Classification [32] of 2 A450 class, a Classification [33] of 1 A450 class and a Classification [34] of 1 A450 class.
